Assay results as given in patent publication US20220194997A1 (CHINESE UNIVERSITY OF HONG KONG, published 2022).

What was measured:
[1] = biological target: human wild-type α-synuclein (full-length) (human, UniProt P37840 1-140); experiment: MST (FIG. 7)
SUMO1(15-55) [2] = biological target: T1, SUMO1(15-55) (human, Where it is the MST target, it carries Alexa Fluor 647 NHS ester on amines (NHS-647); the letters do not show this.); experiment: MST (FIG. 11b)
T1 construct: Fragment 15-55 of human SUMO1; Recombinant SUMO1 fragments were made with an N-terminal His-tag removed by thrombin; also called SUMO(15-55); SUMO1(15-55) peptide
T1 peptide: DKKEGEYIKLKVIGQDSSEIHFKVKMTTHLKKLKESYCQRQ
Method: Unreacted dye was removed with desalting column (2K MWCO, Bio-Rad). The purity was monitored by measuring the ratio of protein to dye after the clean-up procedure. The labelled targets were adjusted to appropriate concentration for detection and kept in ddH2O with 0.1% Tween 20, meanwhile, the ligands were maintained in corresponding buffer (peptides: ddH2O; α-synuclein proteins: 20 mM HEPES, 150 mM NaCl, pH 7.4). For each assay, unlabelled ligand was mixed with equal volume of labelled protein target at 16 different serially diluted concentrations at room temperature.

SUMO1(15-55) [3] = biological target: T1, SUMO1(15-55); experiment: MST; NHS-647 labelled SUMO1(15-55) as target, peptide titrated as ligand
Method: The labelling reaction was performed according to the manufacturer's instructions. Unreacted dye was removed with the dye removal column supplied in the Protein Labelling Kit RED-NHS (NanoTemper Technologies) or desalting column (Bio-Rad). The purity was monitored by measuring the ratio of protein to dye (for example, spectroscopically by measuring absorption at 280 nm for protein and 650 nm for the dye; molar absorbance: 239,000 M⁻¹ cm⁻¹) after the clean-up procedure. The labelled targets were adjusted to appropriate concentration for detection. The ligands were dissolved in reaction buffer and a series of 16 1:1 dilutions was prepared. For the measurement, each ligand dilution was mixed with one volume of labelled protein target. After 10 min incubation, the samples were loaded into standard or premium Monolith NT.115 Capillaries (NanoTemper Technologies). MST was measured using a Monolith NT.115 instrument (NanoTemper Technologies) at an ambient temperature of 25° C. Instrument parameters were adjusted to 20% LED power and medium MST power. Data of three independently pipetted measurements were analyzed (MO.Affinity Analysis software version 2.1.3, NanoTemper Technologies) using the signal from an MST-on time of 5 s.

Binder	Kd (SUMO1(15-55) [3])	other results
SSEIHFKVKMTTHLKKLKESYCQRQ (also called SUMO(31-55)) [SUMO1(31-55)]		binding result [1]: binds
VVHGVATVAEKTK (Synthesized peptide; also called β2-strand peptide αsyn(48-60); SIM 2 (residues 48-60)) [αsyn(48-60)]		binding result (SUMO1(15-55) [2]): binds
EGVLYVGSKTK (Synthesized peptide fragment of α-synuclein; also called β1 strand peptide; β1-strand peptide-αsyn (35-45)) [αsyn(35-45)]	1150 nM	
VTAVAQKTVEG (Peptide fragment of α-synuclein; also called β4 strand peptide) [αsyn(74-84)]	2210 nM	
